Results on three molecules are retold here after patent US20240124607A1 (Merck Sharp & Dohme, published 2024).

Test [1] addresses T1, human CEACAM8 on Ba/F3 cells (human, UniProt P31997 35-320).
T1 construct: whole, on cells
T1 sequence (looked up): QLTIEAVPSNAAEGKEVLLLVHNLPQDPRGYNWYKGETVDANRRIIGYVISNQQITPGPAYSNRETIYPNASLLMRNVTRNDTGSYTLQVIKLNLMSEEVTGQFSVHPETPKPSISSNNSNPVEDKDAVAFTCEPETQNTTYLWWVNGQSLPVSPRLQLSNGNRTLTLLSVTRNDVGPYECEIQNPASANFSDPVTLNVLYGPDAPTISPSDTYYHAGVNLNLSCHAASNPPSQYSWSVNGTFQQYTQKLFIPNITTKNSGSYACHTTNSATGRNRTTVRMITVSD
Kind of test: flow cytometry on Ba/F3 cells expressing human CEACAM8, fold over background (FOB), 5-fold dilutions from 1600 nM. On the procedure:
To examine the binding specificity of the TriNKETs to CEACAM5 compared to other CEACAM family members, Ba/F3 cells were engineered to express one of human CEACAM1, CEACAM6, CEACAM8, or cynomolgus CEACAM5. CEACAM5 TriNKETs were evaluated by flow cytometry starting at 1600 nM followed by 7 5-fold dilutions.

Test [2] has as its target T2, Human CEACAM6 (human, UniProt P40199 35-320, limits assumed).
T2 sequence (looked up): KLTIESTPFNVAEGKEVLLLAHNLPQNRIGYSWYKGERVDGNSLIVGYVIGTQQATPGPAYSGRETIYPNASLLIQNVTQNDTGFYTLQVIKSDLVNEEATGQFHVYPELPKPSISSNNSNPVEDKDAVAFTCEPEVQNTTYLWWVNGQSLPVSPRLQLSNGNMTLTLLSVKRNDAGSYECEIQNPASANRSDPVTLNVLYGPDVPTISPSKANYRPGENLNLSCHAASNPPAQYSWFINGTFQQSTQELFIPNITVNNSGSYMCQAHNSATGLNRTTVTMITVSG
The test can be described thus: SPR, 37C, pH 7.4. The protocol: (§1) To determine the affinity and cross-reactivity of CEACAM5 TriNKET molecules, AB0411, AB0466, or AB0621 TriNKETs were captured using an anti-human Fc capture antibody (Cytiva, #BR100839) immobilized onto a Biacore CM5 standard surface sensor chip following manufacturer instructions. Human or cynomolgus CEACAM5 were titrated over captured AB0411, AB0466, and AB0621 as 2-fold serial dilutions starting from 300 nM. Association was monitored for 300 sec and dissociation was monitored for 600 sec. The assay was run at 37° C. at pH 7.4 and 6.0. The surface of the CM5 chip was regenerated with 10 mM glycine pH 1.5 for 20 sec at 100 μL/min.
Binding to human and cynomolgus CEACAM1, 6, and 8 was assessed by SPR using the same protocol as for CEACAM5 but using up to 600 and 1200 nM for titration of each protein. There were no detectable binding signals at these concentrations for AB0621. In contrast, reproducible weak binding signals were detected for AB0411 and AB0466, but these two TriNKETs also bound to different epitope(s) on the N-terminus of CEACAM5. Typical weak binding sensorgrams for AB0411 and AB0466 against human CEACAM1 and 6 indicated weak but notable signals compared to AB0621. […]
A general note: Surface plasmon resonance follows binding to a sensor surface in real time, without labels.

For test [3], the target named is T3, Cyno NKG2D-mFc (cynomolgus monkey, UniProt P61252 78-216, limits assumed).
T3 construct: also called cynomolgus NKG2D fused to a mouse Fc
T3 sequence (looked up): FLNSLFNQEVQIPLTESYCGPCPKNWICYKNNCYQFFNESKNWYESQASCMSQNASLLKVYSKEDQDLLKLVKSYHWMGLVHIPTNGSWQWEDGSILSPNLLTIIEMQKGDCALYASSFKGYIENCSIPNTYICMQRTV
Kind of test: SPR, NKG2D-mFc captured, 37C, pH 7.4. On the procedure: (§2) Binding to NKG2D was assessed by SPR using a mouse Fc capture kit (Cytiva, #BR100838) immobilized onto a CM5 chip. Human and cynomolgus NKG2D fused to a mouse Fc were captured and AB0411, AB0466, or AB0621 was titrated from 600 nM.

Test [4] has as its target T4, soluble mouse Fc-human NKG2D dimer (human, UniProt P26718 78-216, limits assumed).
T4 construct: also called NKG2D-mFc; human NKG2D fused to a mouse Fc
T4 sequence (looked up): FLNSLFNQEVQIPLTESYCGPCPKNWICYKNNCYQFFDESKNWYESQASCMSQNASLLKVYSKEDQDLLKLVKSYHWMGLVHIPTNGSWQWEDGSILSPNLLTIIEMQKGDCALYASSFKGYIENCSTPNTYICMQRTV
Kind of test: SPR, NKG2D-mFc captured, 37C, pH 7.4. On the procedure:
as §2

Test [5] deals with T5, Human CEACAM5 (E398) (human, UniProt P06731 35-685, limits assumed).
T5 construct: also called hCEACAM5
T5 sequence: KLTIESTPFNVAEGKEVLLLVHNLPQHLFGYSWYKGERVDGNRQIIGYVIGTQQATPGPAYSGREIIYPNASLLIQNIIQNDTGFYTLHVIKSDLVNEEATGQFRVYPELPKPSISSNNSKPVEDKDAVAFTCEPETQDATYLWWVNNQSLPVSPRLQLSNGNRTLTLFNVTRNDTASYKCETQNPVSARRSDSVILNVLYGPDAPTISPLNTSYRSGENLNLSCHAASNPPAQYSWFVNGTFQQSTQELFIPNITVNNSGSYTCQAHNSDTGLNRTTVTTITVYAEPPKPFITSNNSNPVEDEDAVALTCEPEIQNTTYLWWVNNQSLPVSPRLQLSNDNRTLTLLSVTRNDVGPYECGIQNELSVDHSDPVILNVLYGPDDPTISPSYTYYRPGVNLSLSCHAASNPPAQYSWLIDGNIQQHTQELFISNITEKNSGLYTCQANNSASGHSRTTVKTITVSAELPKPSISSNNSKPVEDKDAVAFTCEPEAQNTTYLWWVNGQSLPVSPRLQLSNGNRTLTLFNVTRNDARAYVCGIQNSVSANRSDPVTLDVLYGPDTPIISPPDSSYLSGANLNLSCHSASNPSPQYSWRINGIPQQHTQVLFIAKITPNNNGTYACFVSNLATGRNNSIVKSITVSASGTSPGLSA
The test can be described thus: SPR, anti-hFc capture, 37C, pH 7.4. On the procedure:
as §1

B1: AB0466 F3' CEACAM5 TriNKET (bispecific antibody, human IgG1, kappa)
chain: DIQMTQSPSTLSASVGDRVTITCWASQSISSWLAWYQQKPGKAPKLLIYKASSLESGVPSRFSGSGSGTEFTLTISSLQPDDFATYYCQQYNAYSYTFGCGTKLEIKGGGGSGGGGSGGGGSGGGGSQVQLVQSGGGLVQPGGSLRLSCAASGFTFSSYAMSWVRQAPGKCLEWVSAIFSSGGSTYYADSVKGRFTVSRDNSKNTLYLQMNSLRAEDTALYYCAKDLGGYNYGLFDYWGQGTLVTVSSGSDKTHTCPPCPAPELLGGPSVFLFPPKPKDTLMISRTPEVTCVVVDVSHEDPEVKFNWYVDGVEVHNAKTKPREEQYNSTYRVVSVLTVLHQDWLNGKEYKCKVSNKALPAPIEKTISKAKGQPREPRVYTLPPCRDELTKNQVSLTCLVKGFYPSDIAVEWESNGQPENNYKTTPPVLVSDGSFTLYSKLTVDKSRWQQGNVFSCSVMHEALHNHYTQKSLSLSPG
heavy: EVQLVESGGGLVKPGGSLRLSCAASGFTFSSYSMNWVRQAPGKGLEWVSSISSSSSYIYYADSVKGRFTISRDNAKNSLYLQMNSLRAEDTAVYYCARGAPIGAAAGWFDPWGQGTLVTVSSASTKGPSVFPLAPSSKSTSGGTAALGCLVKDYFPEPVTVSWNSGALTSGVHTFPAVLQSSGLYSLSSVVTVPSSSLGTQTYICNVNHKPSNTKVDKKVEPKSCDKTHTCPPCPAPELLGGPSVFLFPPKPKDTLMISRTPEVTCVVVDVSHEDPEVKFNWYVDGVEVHNAKTKPREEQYNSTYRVVSVLTVLHQDWLNGKEYKCKVSNKALPAPIEKTISKAKGQPREPQVCTLPPSRDELTENQVSLTCLVKGFYPSDIAVEWESNGQPENNYKTTPPVLDSDGSFFLYSWLTVDKSRWQQGNVFSCSVMHEALHNHYTQKSLSLSPG
light: DIQMTQSPSSVSASVGDRVTITCRASQGISSWLAWYQQKPGKAPKLLIYAASSLQSGVPSRFSGSGSGTDFTLTISSLQPEDFATYYCQQGVSFPRTFGGGTKVEIKRTVAAPSVFIFPPSDEQLKSGTASVVCLLNNFYPREAKVQWKVDNALQSGNSQESVTEQDSKDSTYSLSSTLTLSKADYEKHKVYACEVTHQGLSSPVTKSFNRGEC
In general, Kd refers to the free concentration of one partner at which half of the binding sites on the other are occupied at equilibrium, for simple one-to-one binding. Read a low Kd as tighter binding. The koff is the first-order rate constant of dissociation. Read a low koff as a long-lived complex. For orientation: kon means a measure of how fast the partners come together. For B1, the binding result was “no binding (tested: 1600 nM)” in test [1]; “no binding (tested: up to 600 and 1200 nM)” in test [2]. Further, the Kd amounted to 750 nM in test [3], 680 nM in test [4] and 7.2 nM in test [5]. Also, the results for the off-rate (koff) in test [3] and in test [4] were 0.18 s⁻¹ and 0.16 s⁻¹, respectively. Besides, the on-rate (kon) in test [3] turned out to be 230000 M⁻¹ s⁻¹; in test [4], 240000 M⁻¹ s⁻¹; in test [5] it was 190000 M⁻¹ s⁻¹.

B2: AB0411 F3' CEACAM5 TriNKET (bispecific antibody, human IgG1, kappa)
chain: DIQLTQSPATLSVSPGERATLSCRASQSVSSSYLAWYQQKPGQAPRLLIYGASSRATGIPDRFSGSGSGTDFTLTISRLEPEDFAVYYCQQYNNWPLTFGCGTKVEIKGGGGSGGGGSGGGGSGGGGSQVQLVQSGGGLVQPGGSLRLSCAASGFTFTSYAMSWVRQAPGKCLEWVSAISGTGDSTFYADSVKGRFTFSRDNSKNTLYLQMNSLRAEDTAVYYCAKDLGWLQYGLFDYWGQGTLVTVSSGSDKTHTCPPCPAPELLGGPSVFLFPPKPKDTLMISRTPEVTCVVVDVSHEDPEVKFNWYVDGVEVHNAKTKPREEQYNSTYRVVSVLTVLHQDWLNGKEYKCKVSNKALPAPIEKTISKAKGQPREPRVYTLPPCRDELTKNQVSLTCLVKGFYPSDIAVEWESNGQPENNYKTTPPVLVSDGSFTLYSKLTVDKSRWQQGNVFSCSVMHEALHNHYTQKSLSLSPG
heavy: EVQLVESGGGLVKPGGSLRLSCAASGFTFSSYSMNWVRQAPGKGLEWVSSISSSSSYIYYADSVKGRFTISRDNAKNSLYLQMNSLRAEDTAVYYCARGAPIGAAAGWFDPWGQGTLVTVSSASTKGPSVFPLAPSSKSTSGGTAALGCLVKDYFPEPVTVSWNSGALTSGVHTFPAVLQSSGLYSLSSVVTVPSSSLGTQTYICNVNHKPSNTKVDKKVEPKSCDKTHTCPPCPAPELLGGPSVFLFPPKPKDTLMISRTPEVTCVVVDVSHEDPEVKFNWYVDGVEVHNAKTKPREEQYNSTYRVVSVLTVLHQDWLNGKEYKCKVSNKALPAPIEKTISKAKGQPREPQVCTLPPSRDELTENQVSLTCLVKGFYPSDIAVEWESNGQPENNYKTTPPVLDSDGSFFLYSWLTVDKSRWQQGNVFSCSVMHEALHNHYTQKSLSLSPG
light: DIQMTQSPSSVSASVGDRVTITCRASQGISSWLAWYQQKPGKAPKLLIYAASSLQSGVPSRFSGSGSGTDFTLTISSLQPEDFATYYCQQGVSFPRTFGGGTKVEIKRTVAAPSVFIFPPSDEQLKSGTASVVCLLNNFYPREAKVQWKVDNALQSGNSQESVTEQDSKDSTYSLSSTLTLSKADYEKHKVYACEVTHQGLSSPVTKSFNRGEC
Turning to B2, in test [3], binding was characterised by a dissociation constant (Kd) of 590 nM, the dissociation rate constant (koff) stood at 0.15 s⁻¹ and the kon was 260000 M⁻¹ s⁻¹. Moreover, in test [4], the Kd turned out to be 490 nM, the koff stood at 0.12 s⁻¹ and the association rate constant (kon) worked out at 250000 M⁻¹ s⁻¹. In test [5], this molecule had a Kd of 1.7 nM and a kon of 270000 M⁻¹ s⁻¹.

B3: AB0264 F3' CEACAM5 TriNKET (bispecific antibody, human IgG1, kappa)
chain: DIVMTQSPDSLAVSLGERATINCKSSHSLLYGNFQNNYLAWYQQKPGQPPKLLIYWASTRESGVPDRFSGSGSGTDFTLTISSLQAEDVAVYYCQQYYSYPYTFGCGTKLEIKGGGGSGGGGSGGGGSGGGGSQVQLVQSGAEVKKPGASVKVSCKASGYTFTAYTIHWVRQAPGQCLEWMGYINPSSGYTEYNQKFKDRTTLTADTSIPTAYMELSRLRSDDTAVYYCTREGGLLWFDYWGQGTLVTVSSGSDKTHTCPPCPAPELLGGPSVFLFPPKPKDTLMISRTPEVTCVVVDVSHEDPEVKFNWYVDGVEVHNAKTKPREEQYNSTYRVVSVLTVLHQDWLNGKEYKCKVSNKALPAPIEKTISKAKGQPREPRVYTLPPCRDELTKNQVSLTCLVKGFYPSDIAVEWESNGQPENNYKTTPPVLVSDGSFTLYSKLTVDKSRWQQGNVFSCSVMHEALHNHYTQKSLSLSPG
heavy: EVQLVESGGGLVKPGGSLRLSCAASGFTFSSYSMNWVRQAPGKGLEWVSSISSSSSYIYYADSVKGRFTISRDNAKNSLYLQMNSLRAEDTAVYYCARGAPIGAAAGWFDPWGQGTLVTVSSASTKGPSVFPLAPSSKSTSGGTAALGCLVKDYFPEPVTVSWNSGALTSGVHTFPAVLQSSGLYSLSSVVTVPSSSLGTQTYICNVNHKPSNTKVDKKVEPKSCDKTHTCPPCPAPELLGGPSVFLFPPKPKDTLMISRTPEVTCVVVDVSHEDPEVKFNWYVDGVEVHNAKTKPREEQYNSTYRVVSVLTVLHQDWLNGKEYKCKVSNKALPAPIEKTISKAKGQPREPQVCTLPPSRDELTENQVSLTCLVKGFYPSDIAVEWESNGQPENNYKTTPPVLDSDGSFFLYSWLTVDKSRWQQGNVFSCSVMHEALHNHYTQKSLSLSPG
light: DIQMTQSPSSVSASVGDRVTITCRASQGISSWLAWYQQKPGKAPKLLIYAASSLQSGVPSRFSGSGSGTDFTLTISSLQPEDFATYYCQQGVSFPRTFGGGTKVEIKRTVAAPSVFIFPPSDEQLKSGTASVVCLLNNFYPREAKVQWKVDNALQSGNSQESVTEQDSKDSTYSLSSTLTLSKADYEKHKVYACEVTHQGLSSPVTKSFNRGEC
Regarding B3, the binding result is “no binding (tested: 1600 nM)” in test [1]; “no binding (tested: up to 600 and 1200 nM)” in test [2].
